Laboratory results reported in article PMC2925305 (Journal of Nucleic Acids, 2010).

Experiments:
[1] = target: SUMO-1-GST-TDG (SUMO-1-conjugated GST-TDG) (UniProt Q13569); assay: pull-down; GST pull-down: 10 nM GST or GST-fusion protein and 10 nM XPC-RAD23B with 20 ul glutathione-Sepharose in 100 ul binding buffer (20 mM sodium phosphate pH 7.4, 1 mM EDTA, 150 mM NaCl, 1 mM DTT, 5% glycerol, 0.01% Triton X-100, 100 ug/ml BSA), on ice 1 hour, eight washes, elution with 10 mM glutathione; immunoblot with anti-XPC and anti-GST
[2] = target: SUMO-1-GST-TDG (SUMO-1-conjugated GST-TDG) (UniProt Q13569)
[3] = target: GST-TDG (thymine DNA glycosylase fused to glutathione S-transferase, nonmodified) (human, UniProt Q13569 1-410); assay: cell-based or functional assay
[4] = target: T1, GST-SMUG1 (GST-fused SMUG1) (UniProt Q53HV7 1-270); assay: cell-based or functional assay
T1 sequence (looked up): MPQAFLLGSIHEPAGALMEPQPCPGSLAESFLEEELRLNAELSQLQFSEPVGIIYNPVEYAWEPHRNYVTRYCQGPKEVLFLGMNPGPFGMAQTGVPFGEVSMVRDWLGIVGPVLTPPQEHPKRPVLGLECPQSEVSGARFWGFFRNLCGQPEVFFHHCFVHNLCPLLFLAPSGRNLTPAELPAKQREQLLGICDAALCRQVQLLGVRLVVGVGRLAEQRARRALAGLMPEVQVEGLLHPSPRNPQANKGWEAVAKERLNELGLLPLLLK

[5] = target: T2, XPC (recombinant human XPC, alone) (human, UniProt Q01831 1-940); assay: in vitro reconstitution of the heterodimer; XPC-RAD23B-His heterodimer reconstituted in vitro from purified recombinant XPC and RAD23B-His, as described previously [17]; conditions: both partners purified
T2 sequence (looked up): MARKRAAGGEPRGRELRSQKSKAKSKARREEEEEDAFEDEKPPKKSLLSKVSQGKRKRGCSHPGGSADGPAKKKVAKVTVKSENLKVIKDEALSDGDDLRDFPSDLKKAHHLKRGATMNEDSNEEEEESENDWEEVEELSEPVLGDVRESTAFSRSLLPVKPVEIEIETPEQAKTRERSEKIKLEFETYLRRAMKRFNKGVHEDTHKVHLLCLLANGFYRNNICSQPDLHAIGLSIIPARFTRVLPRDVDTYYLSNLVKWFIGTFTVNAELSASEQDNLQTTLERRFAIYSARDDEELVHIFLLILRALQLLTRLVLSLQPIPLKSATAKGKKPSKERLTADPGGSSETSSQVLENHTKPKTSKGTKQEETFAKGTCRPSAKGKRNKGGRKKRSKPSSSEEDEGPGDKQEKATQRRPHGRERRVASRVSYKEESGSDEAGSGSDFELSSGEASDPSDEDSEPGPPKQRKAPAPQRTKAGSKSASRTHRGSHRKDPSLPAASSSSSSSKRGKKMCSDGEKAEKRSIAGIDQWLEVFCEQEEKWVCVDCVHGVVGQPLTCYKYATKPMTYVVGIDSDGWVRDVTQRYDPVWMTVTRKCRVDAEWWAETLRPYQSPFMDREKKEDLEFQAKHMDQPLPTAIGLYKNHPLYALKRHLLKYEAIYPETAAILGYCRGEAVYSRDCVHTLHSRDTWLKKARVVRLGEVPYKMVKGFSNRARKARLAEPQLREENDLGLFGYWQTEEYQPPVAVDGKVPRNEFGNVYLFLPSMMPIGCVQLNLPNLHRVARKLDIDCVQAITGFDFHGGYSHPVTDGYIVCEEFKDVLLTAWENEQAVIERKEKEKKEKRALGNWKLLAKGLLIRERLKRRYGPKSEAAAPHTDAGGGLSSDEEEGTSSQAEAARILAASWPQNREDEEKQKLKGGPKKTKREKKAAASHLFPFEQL

GST-TDG (thymine DNA glycosylase fused to glutathione S-transferase, nonmodified), sequence (Q13569 whole entry, the tested form may be a part): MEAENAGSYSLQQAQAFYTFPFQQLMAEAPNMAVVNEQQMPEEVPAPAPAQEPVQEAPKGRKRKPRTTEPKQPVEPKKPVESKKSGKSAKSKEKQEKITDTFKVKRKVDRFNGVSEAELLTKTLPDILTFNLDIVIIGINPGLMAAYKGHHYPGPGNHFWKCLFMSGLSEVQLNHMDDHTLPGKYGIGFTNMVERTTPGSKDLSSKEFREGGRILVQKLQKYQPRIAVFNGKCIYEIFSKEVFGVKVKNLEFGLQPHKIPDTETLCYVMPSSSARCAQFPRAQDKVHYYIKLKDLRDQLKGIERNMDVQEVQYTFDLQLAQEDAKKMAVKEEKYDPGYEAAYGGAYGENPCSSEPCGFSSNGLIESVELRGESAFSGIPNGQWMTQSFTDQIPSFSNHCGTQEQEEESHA

## XPC-RAD23B-His heterodimer (from UniProt Q01831 1-940; P54727 1-409) (complex)
[1]
  fold more XPC bound than to nonmodified GST-TDG: 2 fold
[2]
  stimulation by XPC-RAD23B (up to 4 nM, dose-dependent) of uracil excision from G/U mismatch DNA (1.6 nM) by 2 nM SUMO-1-conjugated His-TDG, nicking assay, 120 minutes: 5 fold

B1: XPC-RAD23B-His heterodimer (complex, human)
chain 1: MARKRAAGGEPRGRELRSQKSKAKSKARREEEEEDAFEDEKPPKKSLLSKVSQGKRKRGCSHPGGSADGPAKKKVAKVTVKSENLKVIKDEALSDGDDLRDFPSDLKKAHHLKRGATMNEDSNEEEEESENDWEEVEELSEPVLGDVRESTAFSRSLLPVKPVEIEIETPEQAKTRERSEKIKLEFETYLRRAMKRFNKGVHEDTHKVHLLCLLANGFYRNNICSQPDLHAIGLSIIPARFTRVLPRDVDTYYLSNLVKWFIGTFTVNAELSASEQDNLQTTLERRFAIYSARDDEELVHIFLLILRALQLLTRLVLSLQPIPLKSATAKGKKPSKERLTADPGGSSETSSQVLENHTKPKTSKGTKQEETFAKGTCRPSAKGKRNKGGRKKRSKPSSSEEDEGPGDKQEKATQRRPHGRERRVASRVSYKEESGSDEAGSGSDFELSSGEASDPSDEDSEPGPPKQRKAPAPQRTKAGSKSASRTHRGSHRKDPSLPAASSSSSSSKRGKKMCSDGEKAEKRSIAGIDQWLEVFCEQEEKWVCVDCVHGVVGQPLTCYKYATKPMTYVVGIDSDGWVRDVTQRYDPVWMTVTRKCRVDAEWWAETLRPYQSPFMDREKKEDLEFQAKHMDQPLPTAIGLYKNHPLYALKRHLLKYEAIYPETAAILGYCRGEAVYSRDCVHTLHSRDTWLKKARVVRLGEVPYKMVKGFSNRARKARLAEPQLREENDLGLFGYWQTEEYQPPVAVDGKVPRNEFGNVYLFLPSMMPIGCVQLNLPNLHRVARKLDIDCVQAITGFDFHGGYSHPVTDGYIVCEEFKDVLLTAWENEQAVIERKEKEKKEKRALGNWKLLAKGLLIRERLKRRYGPKSEAAAPHTDAGGGLSSDEEEGTSSQAEAARILAASWPQNREDEEKQKLKGGPKKTKREKKAAASHLFPFEQL
chain 2: MQVTLKTLQQQTFKIDIDPEETVKALKEKIESEKGKDAFPVAGQKLIYAGKILNDDTALKEYKIDEKNFVVVMVTKPKAVSTPAPATTQQSAPASTTAVTSSTTTTVAQAPTPVPALAPTSTPASITPASATASSEPAPASAAKQEKPAEKPAETPVATSPTATDSTSGDSSRSNLFEDATSALVTGQSYENMVTEIMSMGYEREQVIAALRASFNNPDRAVEYLLMGIPGDRESQAVVDPPQAASTGAPQSSAVAAAAATTTATTTTTSSGGHPLEFLRNQPQFQQMRQIIQQNPSLLPALLQQIGRENPQLLQQISQHQEHFIQMLNEPVQEAGGQGGGGGGGSGGIAEAGSGHMNYIQVTPQEKEAIERLKALGFPEGLVIQAYFACEKNENLAANFLLQQNFDED
[3]
  stimulation by XPC-RAD23B (various concentrations) of uracil excision from a 60-bp G/U mismatch DNA (1.6 nM) by 0.42 nM His-TDG, nicking assay, 30°C: 5 fold
[4]
  stimulation by XPC-RAD23B (up to 2 nM, dose-dependent) of uracil excision from 60-bp G/U mismatch DNA (1.6 nM) by 2.5 pM SMUG1, nicking assay, 120 minutes: 4 fold

B2: His-tagged RAD23B (RAD23B-His) (natural protein, human, UniProt P54727 1-409, looked up)
chain: MQVTLKTLQQQTFKIDIDPEETVKALKEKIESEKGKDAFPVAGQKLIYAGKILNDDTALKEYKIDEKNFVVVMVTKPKAVSTPAPATTQQSAPASTTAVTSSTTTTVAQAPTPVPALAPTSTPASITPASATASSEPAPASAAKQEKPAEKPAETPVATSPTATDSTSGDSSRSNLFEDATSALVTGQSYENMVTEIMSMGYEREQVIAALRASFNNPDRAVEYLLMGIPGDRESQAVVDPPQAASTGAPQSSAVAAAAATTTATTTTTSSGGHPLEFLRNQPQFQQMRQIIQQNPSLLPALLQQIGRENPQLLQQISQHQEHFIQMLNEPVQEAGGQGGGGGGGSGGIAEAGSGHMNYIQVTPQEKEAIERLKALGFPEGLVIQAYFACEKNENLAANFLLQQNFDED
[5]
  binding result: binds
